The text below walks through data of paper PMC4497383.

The assay deals with 3xFLAG-tagged nascent chain of Sec61β with the transferrin receptor TMD, truncated at position 128 (TMD exposed). Put plainly: co-IP; unbound fractions of the translation reactions after anti-FLAG purification of the RNCs, immunoblotted relative to serial dilutions of total lysate (depletion). (In general: A western blot detects proteins with antibodies after separation by electrophoresis.)

For the substance “SRP54 subunit of the signal recognition particle (SRP) (from UniProt G1STX4 1-499) (natural protein)”, the percent of SRP in the lysate depleted was found to be 90%.
